B1: DVD782 (bispecific antibody)
VH: EVQLVESGGGLVQPGGSLRLSCAASGFTFTDNWISWVRQAPGKGLEWVGYISPNSGFTYYADSVKGRFTISADTSKNTAYLQMNSLRAEDTAVYYCARDNFGGYFDYWGQGTLVTVSSASTKGPSVFPLAPQVQLQESGPGLVKPSQTLSLTCTVSGYSISSDFAWNWIRQPPGKGLEWMGYISYSGNTRYQPSLKSRITISRDTSKNQFFLKLNSVTAADTATYYCVTAGRGFPYWGQGTLVTVSS
VL: DIQMTQSPSSLSASVGDRVTITCRASQDVSTAVAWYQQKPGKAPKLLIYSASFLYSGVPSRFSGSGSGTDFTLTISSLQPEDFATTYYCQQSYTGTVTFGQGTKVEIKRTVAAPSVFIFPPDIQMTQSPSSMSVSVGDRVTITCHSSQDINSNIGWLQQKPGKSFKGLIYHGTNLDDGVPSRFSGSGSGTDYTLTISSLQPEDFATYYCVQYAQFPWTFGGGTKLEIKR
notes: DVD-Ig; HC L, LC L; variable parts only
B2: DVD812 (bispecific antibody)
VH: B1 VH
VL: DIQMTQSPSSLSASVGDRVTITCRASQDVSTAVAWYQQKPGKAPKLLIYSASFLYSGVPSRFSGSGSGTDFTLTISSLQPEDFATTYYCQQSYTGTVTFGQGTKVEIKRTVAAPDIQMTQSPSSMSVSVGDRVTITCHSSQDINSNIGWLQQKPGKSFKGLIYHGTNLDDGVPSRFSGSGSGTDYTLTISSLQPEDFATYYCVQYAQFPWTFGGGTKLEIKR
notes: DVD-Ig; HC L, LC S; variable parts only
B3: DVD778 (bispecific antibody)
VH: QVQLVESGGGLVKPGGSLRLSCAASGFTFSDYYMSWIRQAPGKGLEWVSYISSSGSTIYYADSVKGRFTISRDNAKNSLYLQMNSLRAEDTAVYYCARDEYNSGWYVLFDYWGQGTLVTVSSASTKGPSVFPLAPQVQLQESGPGLVKPSQTLSLTCTVSGYSISSDFAWNWIRQPPGKGLEWMGYISYSGNTRYQPSLKSRITISRDTSKNQFFLKLNSVTAADTATYYCVTAGRGFPYWGQGTLVTVSS
VL: DIQMTQSPSSVSASVGDRVTITCRASQGISSWLAWYQQKPGKAPNLLIYEASSLQSGVPSRFGGSGSGTDFTLTISSLQPEDFATYYCQQANGFPWTFGQGTKVEIKRTVAAPSVFIFPPDIQMTQSPSSMSVSVGDRVTITCHSSQDINSNIGWLQQKPGKSFKGLIYHGTNLDDGVPSRFSGSGSGTDYTLTISSLQPEDFATYYCVQYAQFPWTFGGGTKLEIKR
notes: as for B1
B4: DVD808 (bispecific antibody)
VH: B3 VH
VL: DIQMTQSPSSVSASVGDRVTITCRASQGISSWLAWYQQKPGKAPNLLIYEASSLQSGVPSRFGGSGSGTDFTLTISSLQPEDFATYYCQQANGFPWTFGQGTKVEIKRTVAAPDIQMTQSPSSMSVSVGDRVTITCHSSQDINSNIGWLQQKPGKSFKGLIYHGTNLDDGVPSRFSGSGSGTDYTLTISSLQPEDFATYYCVQYAQFPWTFGGGTKLEIKR
notes: as for B2
B5: DVD838 (bispecific antibody)
VH: QVQLVESGGGLVKPGGSLRLSCAASGFTFSDYYMSWIRQAPGKGLEWVSYISSSGSTIYYADSVKGRFTISRDNAKNSLYLQMNSLRAEDTAVYYCARDEYNSGWYVLFDYWGQGTLVTVSSASTKGPQVQLQESGPGLVKPSQTLSLTCTVSGYSISSDFAWNWIRQPPGKGLEWMGYISYSGNTRYQPSLKSRITISRDTSKNQFFLKLNSVTAADTATYYCVTAGRGFPYWGQGTLVTVSS
VL: B3 VL
notes: DVD-Ig; HC S, LC L; variable parts only
B6: DVD336 (bispecific antibody)
VH: B5 VH
VL: B4 VL
notes: DVD-Ig; HC S, LC S; variable parts only
B7: DVD781 (bispecific antibody)
VH: QVQLQESGPGLVKPSQTLSLTCTVSGYSISSDFAWNWIRQPPGKGLEWMGYISYSGNTRYQPSLKSRITISRDTSKNQFFLKLNSVTAADTATYYCVTAGRGFPYWGQGTLVTVSSASTKGPSVFPLAPEVQLVESGGGLVQPGGSLRLSCAASGFTFTDNWISWVRQAPGKGLEWVGYISPNSGFTYYADSVKGRFTISADTSKNTAYLQMNSLRAEDTAVYYCARDNFGGYFDYWGQGTLVTVSS
VL: DIQMTQSPSSMSVSVGDRVTITCHSSQDINSNIGWLQQKPGKSFKGLIYHGTNLDDGVPSRFSGSGSGTDYTLTISSLQPEDFATYYCVQYAQFPWTFGGGTKLEIKRTVAAPSVFIFPPDIQMTQSPSSLSASVGDRVTITCRASQDVSTAVAWYQQKPGKAPKLLIYSASFLYSGVPSRFSGSGSGTDFTLTISSLQPEDFATTYYCQQSYTGTVTFGQGTKVEIKR
notes: as for B1
B8: DVD807 (bispecific antibody)
VH: QVQLQESGPGLVKPSQTLSLTCTVSGYSISSDFAWNWIRQPPGKGLEWMGYISYSGNTRYQPSLKSRITISRDTSKNQFFLKLNSVTAADTATYYCVTAGRGFPYWGQGTLVTVSSASTKGPSVFPLAPQVQLVESGGGLVKPGGSLRLSCAASGFTFSDYYMSWIRQAPGKGLEWVSYISSSGSTIYYADSVKGRFTISRDNAKNSLYLQMNSLRAEDTAVYYCARDEYNSGWYVLFDYWGQGTLVTVSS
VL: DIQMTQSPSSMSVSVGDRVTITCHSSQDINSNIGWLQQKPGKSFKGLIYHGTNLDDGVPSRFSGSGSGTDYTLTISSLQPEDFATYYCVQYAQFPWTFGGGTKLEIKRTVAAPDIQMTQSPSSVSASVGDRVTITCRASQGISSWLAWYQQKPGKAPNLLIYEASSLQSGVPSRFGGSGSGTDFTLTISSLQPEDFATYYCQQANGFPWTFGQGTKVEIKR
notes: as for B2
B9: DVD811 (bispecific antibody)
VH: B7 VH
VL: DIQMTQSPSSMSVSVGDRVTITCHSSQDINSNIGWLQQKPGKSFKGLIYHGTNLDDGVPSRFSGSGSGTDYTLTISSLQPEDFATYYCVQYAQFPWTFGGGTKLEIKRTVAAPDIQMTQSPSSLSASVGDRVTITCRASQDVSTAVAWYQQKPGKAPKLLIYSASFLYSGVPSRFSGSGSGTDFTLTISSLQPEDFATTYYCQQSYTGTVTFGQGTKVEIKR
notes: as for B2
B10: DVD837 (bispecific antibody)
VH: QVQLQESGPGLVKPSQTLSLTCTVSGYSISSDFAWNWIRQPPGKGLEWMGYISYSGNTRYQPSLKSRITISRDTSKNQFFLKLNSVTAADTATYYCVTAGRGFPYWGQGTLVTVSSASTKGPQVQLVESGGGLVKPGGSLRLSCAASGFTFSDYYMSWIRQAPGKGLEWVSYISSSGSTIYYADSVKGRFTISRDNAKNSLYLQMNSLRAEDTAVYYCARDEYNSGWYVLFDYWGQGTLVTVSS
VL: DIQMTQSPSSMSVSVGDRVTITCHSSQDINSNIGWLQQKPGKSFKGLIYHGTNLDDGVPSRFSGSGSGTDYTLTISSLQPEDFATYYCVQYAQFPWTFGGGTKLEIKRTVAAPSVFIFPPDIQMTQSPSSVSASVGDRVTITCRASQGISSWLAWYQQKPGKAPNLLIYEASSLQSGVPSRFGGSGSGTDFTLTISSLQPEDFATYYCQQANGFPWTFGQGTKVEIKR
notes: as for B5
B11: DVD841 (bispecific antibody)
VH: QVQLQESGPGLVKPSQTLSLTCTVSGYSISSDFAWNWIRQPPGKGLEWMGYISYSGNTRYQPSLKSRITISRDTSKNQFFLKLNSVTAADTATYYCVTAGRGFPYWGQGTLVTVSSASTKGPEVQLVESGGGLVQPGGSLRLSCAASGFTFTDNWISWVRQAPGKGLEWVGYISPNSGFTYYADSVKGRFTISADTSKNTAYLQMNSLRAEDTAVYYCARDNFGGYFDYWGQGTLVTVSS
VL: B7 VL
notes: as for B5
B12: DVD335 (bispecific antibody)
VH: B10 VH
VL: B8 VL
notes: as for B6
B13: DVD339 (bispecific antibody)
VH: B11 VH
VL: B9 VL
notes: as for B6

What follows are binders tested against T1, DLL-4 (UniProt Q9NR61 27-524, limits assumed, biotinylated) (assay: direct bind ELISA, N-term VD;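 note: antibody or DVD-Ig preparations bound to immobilized target antigen on ELISA plates, 1 h at room temperature, TMB detection read as absorbance at 450 nm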).
T1 construct: ELISA antigen

Q: With B1 as the binder, how does the EC50 read?
A: 0.37 nM

Q: Which EC50 does the source give for B2 here?
A: 0.39 nM

Each binder was assayed against T2, HGF (UniProt P14210 32-728, limits assumed, biotinylated) (assay: direct bind ELISA, N-term VD;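 note: antibody or DVD-Ig preparations bound to immobilized target antigen on ELISA plates, 1 h at room temperature, TMB detection read as absorbance at 450 nm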).
T2 construct: ELISA antigen

Q: How did the EC50 turn out when B3 was run?
A: 0.17 nM

Q: How did the EC50 turn out when B4 was run?
A: 0.14 nM

Q: B5 was tested. Which EC50 did it give?
A: 0.19 nM

Q: B6 was tested. Which EC50 did it give?
A: 0.15 nM

These binders were tested against T3, EGFR (UniProt P00533 25-645, limits assumed, biotinylated) (assay: direct bind ELISA, N-term VD;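 note: antibody or DVD-Ig preparations bound to immobilized target antigen on ELISA plates, 1 h at room temperature, TMB detection read as absorbance at 450 nm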).
T3 construct: ELISA antigen; construct not described

Q: With B7 as the binder, how does the EC50 read?
A: 4.19 nM

Q: How did the EC50 turn out when B8 was run?
A: 4.85 nM

Q: How did the EC50 turn out when B9 was run?
A: 3.45 nM

Q: With B10 as the binder, how does the EC50 read?
A: 4.51 nM

Q: How did the EC50 turn out when B11 was run?
A: 4.06 nM

Q: How did the EC50 turn out when B12 was run?
A: 3.77 nM

Q: With B13 as the binder, how does the EC50 read?
A: 5.1 nM

Each binder was assayed against T1, DLL-4 (assay: direct bind ELISA, C-term VD;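 note: ELISA with antibody or DVD-Ig preparations applied to target antigen-coated plates for 1 h at room temperature, TMB colour development, absorbance read at 450 nm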).

Q: How did the EC50 turn out when B7 was run?
A: 0.42 nM

Q: With B9 as the binder, how does the EC50 read?
A: 0.99 nM

Q: Which EC50 does the source give for B11 here?
A: 0.55 nM

Q: How did the EC50 turn out when B13 was run?
A: 4.01 nM

Each binder was assayed against T2, HGF (assay: direct bind ELISA, C-term VD;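 note: ELISA with antibody or DVD-Ig preparations applied to target antigen-coated plates for 1 h at room temperature, TMB colour development, absorbance read at 450 nm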).

Q: With B8 as the binder, how does the EC50 read?
A: 9.24 nM

Q: How did the EC50 turn out when B10 was run?
A: 1.29 nM

Q: With B12 as the binder, how does the EC50 read?
A: 159 nM

What follows are binders tested against T3, EGFR (assay: direct bind ELISA, C-term VD;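 note: ELISA with antibody or DVD-Ig preparations applied to target antigen-coated plates for 1 h at room temperature, TMB colour development, absorbance read at 450 nm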).

Q: B3 was tested. Which EC50 did it give?
A: 50.3 nM

Q: B1 was tested. Which EC50 did it give?
A: 55.2 nM

Q: For B4, which EC50 is on record?
A: 96.4 nM

Q: How did the EC50 turn out when B2 was run?
A: 77.3 nM

Q: With B5 as the binder, how does the EC50 read?
A: 57.7 nM

Q: B6 was tested. Which EC50 did it give?
A: 332 nM
